# Data: patent US20240083983A1 (Regeneron, published 2024)
# Biological target: Influenza B hemagglutinin (HA) from B/Florida/4/2006 (Influenza B virus, strain …, UniProt P03463 16-583)
binder,measurement,value
"mAb35490 (antibody, human IgG1, kappa, V domains shown) VH: EVQLVESGGDLVQPGGSLRLSCAASGFTVSSNYMSWVRQVPGKGLDWVSVTYSGGNTYYADSVKGRFTISRHNSKNTLYLQMNSLRIEDTAVYYCATVPSFHGMDVWGQGTTVTVSS VL: not shown",EC50,761 pM
